From article PMC10700182, “A Bacterial Quorum Sensing Regulated Protease Inhibits Host Immune Responses by Cleaving Death Domains of Innate Immune Adaptors” (Advanced Science, 2023) come the findings set out here.

The data set concerns the molecule itself. The experiment in a line: native gel or EMSA. On the technique in general: Mobility shift assays separate free from complexed probe on a gel.

B1: Myd88 DD^20-117-SNAP (domain or fragment)
chain: LPLAALNMRVRRRLSLFLNVRTQVAADWTALAEEMDFEYLEIRQLETQADPTGRLLDAWQGRPGASVGRLLELLTKLGRDDVLLELGPSIEEDCQKYI
modifications: benzylguanine dye (BG-647 or BG-488, AlexaFluor) on the SNAP tag
notes: also called MyD88 Death domain; MyD88 DD SNAP; source: E. coli BL21(DE3), purified (Ni-NTA agarose)
For the protein B1, the binding result was “binds”.
